# Results from article PMC4058633 (Nature protocols, 2013).
# B1: pentameric ligand-gated ion channel of Erwinia chrysanthemi (ELIC) (natural protein)
# chain: APADNAADARPVDVSVSIFINKIYGVNTLEQTYKVDGYIVAQWTGKPRKTPGDKPLIVENTQIERWINNGLWVPALEFINVVGSPDTGNKRLMLFPDGRVIYNARFLGSFSNDMDFRLFPFDRQQFVLELEPFSYNNQQLRFSDIQVYTENIDNEEIDEWWIRKASTHISDIRYDHLSSVQPNQNEFSRITVRIDAVRNPSYYLWSFILPLGLIIAASWSVFWLESFSERLQTSFTLMLTVVAYAFYTSNILPRLPYTTVIDQMIIAGYGSIFAAILLIIFAHHRQAMGVEDDLLIQRCRLAFPLGFLAIGCVLVIRGITL
# Biological target: the molecule itself
# Assay: native MS
protein,measurement,value
B1,stoichiometry N,5
